B1: Pistol ribozyme (parent)
chain: GGGUCGUUGUUCCAUAAUCGCGUGGAUAUGGCACGCAAGUUUCUACCGGGCACCGUAAAUGUCCGACUGGAGCCGUUCGGGCGGCUAUAAACAGACCUCAGGCCCGAAGCGUGGCGGCACCUGCCGCCGGUGGUAAAAAAGAUCGGAAGAGCACACGUCU

Variants of: B1
Test: aptazyme ON/OFF ratio, guanine; higher = stronger switching; co-transcriptional cleavage with and without guanine

Point of comparison: U7C U8A G9A U10C U11A C12U C13A, “aptazyme ON/OFF ratio” value 1.17. Against it:
- U7C U8A G9C U10A U11A C12U C13G — lower, 1.1
- U7C U8A G9A U11A C13A — the same, 1.17
- U7C U8A G9A U11A C13U — lower, 1.14
- U7C U8A G9A U11A C13G — lower, 1.04
- U7C U8A G9A U10G U11G C12A C13G — lower, 1.14
- U7C U8A G9A U10G U11G C12A C13A — higher, 1.19
- U7C U8A G9A U10G U11G C12A C13U — higher, 1.23
- U7C U8A G9A U10A U11A C12A C13G — higher, 1.18
- U7C U8A G9A U10A U11A C12A C13U — higher, 1.18
- U7C U8A G9A U10A U11A C12A C13A — higher, 1.24
- U7C U8A G9A U10G U11A C12G — lower, 1.16
- U7C U8A G9A U10G U11A C12A — lower, 1.15
- U7C U8A G9A U10G U11A C12U — lower, 1.01
- U7C U8A G9C U10A C13A — the same, 1.17
- U7C U8A G9C U10A C13G — lower, 1.07
- U7C U8A G9C U10A C13U — higher, 1.24
- U7C U8A G9C U10A U11C C12A — higher, 1.28
- U7C U8A G9C U10A U11C C12G — higher, 1.2
- U7C U8A G9A U10C C12G — higher, 1.2
- U7C U8A G9A U10C C12A — higher, 1.19
- U7C U8A G9A U10C C12U — higher, 1.58
- U7C U8A G9C U10A — higher, 1.74
- U7C U8A G9A U10A U11C C12U C13A — lower, 1.09
- U7C U8A G9A U10A U11C C12U C13G — lower, 1.06
- U7C U8A G9A U10A U11C C12U C13U — lower, 1.1
- U7C U8A G9A U10C C12G C13A — lower, 1.13
- U7C U8A G9A U10C C12G C13G — lower, 1.1
- U7C U8A G9A U10C C12G C13U — higher, 1.19
- U7C U8A G9A U10A U11G C13G — lower, 1.02
- U7C U8A G9A U10A U11G C13A — lower, 1.16
- U7C U8A G9A U10A U11G C13U — higher, 1.25
- U7C U8A G9C U10A C12U C13G — lower, 1.11
- U7C U8A G9C U10A C12U C13U — lower, 1.06
- U7C U8A G9C U10A C12U C13A — lower, 1.09
- U7C U8A G9A U10C U11G C12A — lower, 1.05
- U7C U8A G9A U10C U11G C12G — higher, 1.31
- U7C U8A G9A U10C U11G C12U — higher, 1.22
- U7C U8A G9C U10A U11C C12A C13G — lower, 1.14
- U7C U8A G9C U10A U11C C12A C13A — higher, 1.19
- U7C U8A G9C U10A U11C C12A C13U — lower, 1.15
- U7C U8A G9A U10C U11C C12G — lower, 1.09
- U7C U8A G9A U10C U11C C12U — lower, 1.04
- U7C U8A G9A U10C U11C C12A — lower, 1.09
- U7C U8A G9A U10C C12A C13A — lower, 1.14
- U7C U8A G9A U10C C12A C13G — lower, 1.16
- U7C U8A G9A U10C C12A C13U — higher, 1.24
- U7C U8A G9C U10A U11A — higher, 1.27
- U7C U8A G9C U10A U11C — lower, 1.05
- U7C U8A G9A U11C C12U C13G — lower, 1.09
- U7C U8A G9A U11C C12U C13A — the same, 1.17
- U7C U8A G9A U11C C12U C13U — higher, 1.2
- U7C U8A G9A U10C U11A C12U — higher, 1.28
- U7C U8A G9A U10C U11A C12A — lower, 1.12
- U7C U8A G9A U10C U11A C12G — lower, 1.14
- U7C U8A G9C C12A — the same, 1.17
- U7C U8A G9C C12G — lower, 1.13
- U7C U8A G9C C12U — lower, 1.05
- U7C U8A G9A U10A C13A — lower, 1.15
- U7C U8A G9A U10A C13G — lower, 1.09
- U7C U8A G9A U10A C13U — higher, 1.26
- U7C G9U U11G C12U C13G — lower, 1.11
- U7C G9U U11G C12U C13A — the same, 1.17
- U7C G9U U11G C12U C13U — higher, 1.3
- U7C G9U U11G C12G C13U — lower, 1.1
- U7C U8A G9A U10C U11G C12A C13G — lower, 1.16
- U7C U8A G9A U10C U11G C12A C13A — higher, 1.2
- U7C U8A G9A U10C U11G C12A C13U — lower, 1.14
- U7C U8A G9C U10A C12G C13G — higher, 1.21
- U7C U8A G9C U10A C12G C13A — lower, 1.11
- U7C U8A G9C U10A C12G C13U — higher, 1.26
- U7C U8A G9A U10A C12G — higher, 1.21
- U7C U8A G9A U10A C12A — higher, 1.19
- U7C U8A G9A U10A C12U — higher, 1.22
- U7C U8A G9A U10C U11G C13A — lower, 1.15
- U7C U8A G9A U10C U11G C13U — lower, 1.1
- U7C U8A G9A U10C U11G C13G — lower, 1.13
- U7C U8A G9A C12G C13G — higher, 1.22
- U7C U8A G9A C12G C13U — the same, 1.17
- U7C U8A G9A C12G C13A — the same, 1.17
- U7C U8A G9A U11C C12G C13A — lower, 1.16
- U7C U8A G9A U11C C12G C13G — lower, 1.12
- U7C U8A G9A U11C C12G C13U — higher, 1.18
- U7C U8A G9A U11C C13G — lower, 1.02
- U7C U8A G9A U11C C13A — lower, 1.04
- U7C U8A G9A U11C C13U — lower, 1.05
- U7C U8A C12U — higher, 1.68
- U7C U8A C12G — higher, 1.37
- U7C U8A C12A — higher, 1.3
- U7C U8A G9A U10G U11G C12G C13U — higher, 1.2
- U7C U8A G9A U10G U11G C12G C13A — higher, 1.21
- U7C U8A G9A U10G U11G C12G C13G — higher, 1.23
- U7C U8A G9A U10A U11A C12G C13A — higher, 1.2
- U7C U8A G9A U10A U11A C12G C13U — higher, 1.22
- U7C U8A G9A U10A U11A C12G C13G — higher, 1.28
- U7C U8A G9C — lower, 1.04
- U7C U8A G9A — higher, 1.22
- U7C U8A G9A C12U C13A — higher, 1.19
- U7C U8A G9A C12U C13U — higher, 1.18
- U7C U8A G9A C12U C13G — higher, 1.19
- U7C U8A G9A U10G U11A C13G — lower, 1.05
- U7C U8A G9A U10G U11A C13U — lower, 1.03
- U7C U8A G9A U10G U11A C13A — lower, 1.04
- U7C U8A G9A U10A U11C C12A — lower, 1.16
- U7C U8A G9A U10A U11C C12U — lower, 1.09
- U7C U8A G9A U10A U11C C12G — higher, 1.21
- U7C U8A G9A U10A U11G C12A — lower, 1.05
- U7C U8A G9A U10A U11G C12U — lower, 1.14
- U7C U8A G9A U10A U11G C12G — lower, 1.12
- U7C U8A G9A U10C U11A C13U — lower, 1.16
- U7C U8A G9A U10C U11A C13A — higher, 1.2
- U7C U8A G9A U10C U11A C13G — lower, 1.08
- U7C U8A G9A U10G U11C C12G C13A — lower, 1.13
- U7C U8A G9A U10G U11C C12G C13G — higher, 1.21
- U7C U8A G9A U10G U11C C12G C13U — higher, 1.25
- U7C U8A G9A U10C C12U C13U — higher, 1.26
- U7C U8A G9A U10C C12U C13G — lower, 1.11
- U7C U8A G9A U10C C12U C13A — lower, 1.11
- U7C U8A G9A U10G U11A — lower, 1.01
- U7C U8A G9A U10G U11G — lower, 1.04
- U7C U8A G9A U10G U11C — lower, 1.03
- U7C U8A G9A U10G U11C C13G — lower, 1.05
- U7C U8A G9A U10G U11C C13A — lower, 1.05
- U7C U8A G9A U10G U11C C13U — lower, 1
- U7C U8A G9A U10A U11G C12G C13A — higher, 1.26
- U7C U8A G9A U10A U11G C12G C13U — higher, 1.18
- U7C U8A G9A U10A U11G C12G C13G — higher, 1.28
- U7C U8A G9A U10A U11A — higher, 1.22
- U7C U8A G9A U10A U11G — higher, 1.31
- U7C U8A G9A U10A U11C — lower, 1.02
- U7C G9U U11G C12U — higher, 1.47
- U7C U8A G9A U10A C12G C13U — higher, 1.27
- U7C U8A G9A U10A C12G C13G — higher, 1.24
- U7C U8A G9A U10A C12G C13A — higher, 1.23
- U7C U8A G9A U11G C13U — higher, 1.25
- U7C U8A G9A U11G C13A — higher, 1.18
- U7C U8A G9A U11G C13G — lower, 1.04
- U7C U8A G9A U10C U11A C12U C13G — lower, 1.15
- U7C U8A G9A U10C U11A C12U C13U — lower, 1.11
- U7C U8A G9C U10A C12A — higher, 1.2
- U7C U8A G9C U10A C12G — higher, 1.26
- U7C U8A G9C U10A C12U — higher, 1.22
- U7C U8A — higher, 3.27
- U7C U8A G9A U10G U11A C12G C13A — lower, 1.06
- U7C U8A G9A U10G U11A C12G C13G — lower, 1.07
- U7C U8A G9A U10G U11A C12G C13U — higher, 1.24
- U7C U8A G9C U10A U11A C12G C13A — lower, 1.1
- U7C U8A G9C U10A U11A C12G C13G — lower, 1.12
- U7C U8A G9C U10A U11A C12G C13U — lower, 1.16
- U7C U8A G9A U10G C13A — the same, 1.17
- U7C U8A G9A U10G C13G — lower, 1.08
- U7C U8A G9A U10G C13U — higher, 1.39
- U7C U8A G9A U10G C12A C13G — lower, 1.15
- U7C U8A G9A U10G C12A C13A — lower, 1.14
- U7C U8A G9A U10G C12A C13U — higher, 1.25
- U7C U8A G9C C12A C13U — lower, 1.15
- U7C U8A G9C C12A C13A — lower, 1.15
- U7C U8A G9C C12A C13G — lower, 1.05
- U7C U8A G9A U10A U11C C12G C13A — lower, 1.14
- U7C U8A G9A U10A U11C C12G C13U — higher, 1.18
- U7C U8A G9A U10A U11C C12G C13G — higher, 1.35
- U7C U8A G9A U10C U11C — lower, 1.02
- U7C U8A G9A U10C U11G — higher, 1.32
- U7C U8A G9A U10C U11A — higher, 1.23
- U7C U8A G9A U11C C12A C13G — lower, 1.15
- U7C U8A G9A U11C C12A C13U — higher, 1.28
- U7C U8A G9A U11C C12A C13A — lower, 1.15

Source: the RNAGym collection of RNA variant scans (doi:10.1021/acssynbio.7b00057)
